According to patent US20110182905A1 (published 2011):
“And” between values parts separate entries of the source, which are not always exact repeats. Identical values can stand only once.

B1: EV1018 (antibody, human IgG1, lambda)
heavy: not shown
light: QSALTQETSVSGTVGQKVTLSCIGNNNNIGSHAVGWYQQISRGAPKMVLFGRSPPSGVPDRFSGSKSGTTASLIISGLQPEDEADYYCSTWDSSLSAVVFGGGTKLTVLRQPKAAPSVTLFPPSSEELQANKATLVCLISDFYPGAVTVAWKADSSPVKAGVETTTPSKQSNNKYAASSYLSLTPEQWKSHRSYSCQVTHEGSTVEKTVAPTECS
notes: also called wild-type EV1018; WT EV1018
B2: EV1019 (antibody, human IgG1, lambda, V domains shown)
VH: QAQLVESGGGVVKPGGSLRLSCISSKFTFSSHAMHWVRQAPGKGLEWVAVIWHDGSKKYYADSVKGRFSVSRDNSKNTLFLQMDSLRAEDTAVYFCGKEWVGGTCDSWGQGTLVIVSS
VL: QPALTQEASVSGTVGQTVTLLCSGNSSNIGSYAVGWYQQISRGAPKIVVFGKSPASGIPDRFSGSKSGTTASLLVSGLQPEDEADYYCSTWDSRLSAVLFGGGTKLTVLR
notes: Fully human IgG1 lambda; also called EV1019 Batch 1; EV1019 Batch 2
B3: EV1018 variant 1 (antibody, human IgG1, lambda, L234A L235A)
heavy: not shown
light: QSALTQETSVSGTVGQKVTLSCIGNNNNIGSHAVGWYQQISRGAPKMVLFGRSPPSGVPDRFSGSKSGTTASLIISGLQPEDEADYYCSTWDSSLSAVVFGGGTKLTVLGQPKAAPSVTLFPPSSEELQANKATLVCLISDFYPGAVTVAWKGDSSPVKAGVETTTPSKQSNNKYAASSYLSLTPEQWKSHRSYSCQVTHEGSTVEKTVAPTECS
B4: EV1018 variant 2 (antibody, human IgG1, lambda, L234A L235A, V domains shown)
VH: QVELVESGGGMVQPGMPLRLSCVASGFTFSSYGMHWVRQAPGKGLEWVALTYHHGNRKFYADSVRGRFTISRDNSKNTLYLQMTSLRAEDTAVYFCARESMGAINDNWGQGTLVIVSS
VL: QSALTQETSVSGTVGQKVTLSCIGNNNNIGSHAVGWYQQISRGAPKMVLFGRSPPSGVPDRFSGSKSGTTASLIISGLQPEDEADYYCSTWDSSLSAVVFGGGTKLTVLG

Assays:
[1] = target: T1, purified hGM-CSF (Biomol #2514, expressed in E. coli) (human, UniProt P04141 18-144); experiment: cell-based or functional assay
[2] = target: rhesus GM-CSF (rhesus); experiment: cell-based or functional assay
[3] = target: T2, marmoset GM-CSF (marmoset); experiment: Biacore, antibody on mouse anti-human chip, soluble marmoset GM-CSF
T2 construct: also called rmGM-CSF (derived from HEK cells); recombinant marmoset GM-CSF
Excerpt: (§1) Mouse anti-human Biacore chips (GE Healthcare) are used to immobilize each of the antibodies and soluble commercially available purified GM-CSF (Biomol) is allowed to bind. The hGM-CSF used in these experiments is the same as that used in the bioassays described below.
A marmoset GM-CSF expression clone (e.g., GenBank Accession No. B0KWQ4 with Methionine at position 53 and Proline at position 109) similar to the rhesus GM-CSF expression clone described above is generated.

[4] = target: T3, rhesus GM-CSF (rhesus); experiment: Biacore, antibody on mouse anti-human chip, soluble rhesus GM-CSF
T3 construct: also called rrGM-CSF (derived from HEK cells); recombinant rhesus GM-CSF
Excerpt: as §1
The rhesus GM-CSF sequence is present in the public databases (e.g., GenBank Accession No NP_{—}001028121) and is used to design an expression clone as an Fc fusion protein. Protease cleavage sites are introduced to allow release of untagged rhesus GM-CSF protein.

[5] = target: T1, purified hGM-CSF (Biomol #2514, …); experiment: own Biacore KD of EV1018 set against the 7 pM cited for MOR04357-Fab from WO2006/122797
[6] = target: T1, purified hGM-CSF (Biomol #2514, …); experiment: cell-based or functional assay; remark: listed apart in the source
[7] = target: T1, purified hGM-CSF (Biomol #2514, …); experiment: cell-based or functional assay; remark: listed apart in the source
[8] = target: T3, rhesus GM-CSF; experiment: cell-based or functional assay; remark: listed apart in the source
[9] = target: T1, purified hGM-CSF (Biomol #2514, …); experiment: Biacore, antibody on mouse anti-human chip, soluble hGM-CSF (Biomol)
Excerpt: as §1

[10] = target: T4, recombinant hGM-CSF derived from E. coli (Peprotech) (human, UniProt P04141 18-144); experiment: SPR (Biacore), antibody captured on protein G, hGM-CSF injected
T4 construct: Bought protein; also called E. coli hGM-CSF (Peprotech); E. coli rhGM-CSF
Experimental: (§2) To calculate affinity constants for recombinant hGM-CSF binding to anti-hGM-CSF monoclonal antibodies, surface plasmon resonance (SPR) was performed on a Biacore System™ (FIG. 2).
(§3) In the method to analyze the interaction between antibodies and antigens, the purified antibodies were captured on a sensor chip via interaction with protein G immobilized to sensor chip surface, and then recombinant antigens were injected to the sensor chip. Purified antibodies were used and recombinant hGM-CSF was used as an antigen.

[11] = target: T5, recombinant hGM-CSF derived from yeast (Leukine, Berlex) (human, UniProt P04141 18-144); experiment: as above
T5 construct: Bought protein; also called yeast hGM-CSF (Leukine); yeast rhGM-CSF
Experimental: as §2, §3

T1 sequence (P04141 18-144 limits assumed): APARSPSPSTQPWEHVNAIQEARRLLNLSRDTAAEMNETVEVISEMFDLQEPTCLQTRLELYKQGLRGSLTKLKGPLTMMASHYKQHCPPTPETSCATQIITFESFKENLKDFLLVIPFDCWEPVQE
T4 sequence (P04141 18-144 limits assumed): as above
T5 sequence (P04141 18-144 limits assumed): as above

| Binder | IC50 in TF-1 proliferation assay [1] | IC50 in TF-1 proliferation assay [2] | Kd [3] [nM] | Kd [4] | times less binding than MOR04357 [5] [fold] | Ratio: Reference antibody (BVD2-21C11) to antibody of interest, TF-1 assay [6] [ratio] | IC50 in U937 IL-8 secretion assay [7] | IC50 in U937 IL-8 secretion assay [8] | Kd [9] [nM] | Kd [10] [nM] | Kd [11] [nM] |
| --- | --- | --- | --- | --- | --- | --- | --- | --- | --- | --- | --- |
| B1 | 2.3 ng/ml and 15 pM | 1.7 ng/ml and 11 pM | 2.1 | 0.381 nM | ~16 | 413 | 0.9 ng/ml and 6 pM | 0.8 ng/ml and 5.6 pM | 0.112 | 0.15 | 0.23 |
| B2 | 5.7 ng/ml and 38 pM | 2.8 ng/ml and 19 pM | 1.4 | 0.739 nM and 0.543 nM |  |  | 4.7 ng/ml and 31.3 pM | 2.4 ng/ml and 16 pM | 0.152 | 0.15 | 0.36 |
| B3 | 0.032 nM |  |  |  |  |  |  |  |  |  |  |
| B4 | 0.0333 nM |  |  |  |  |  |  |  |  |  |  |
